Data taken from article doi:10.1101/2020.10.08.20209114 (medRxiv, 2020).

Molecular target: SARS-CoV-2 S2 protein (SARS-CoV-2 (Wuhan-Hu-1 assumed), UniProt P0DTC2)
Test: ELISA

B1: monoclonal antibody 7F3 (antibody, V domains shown)
VH: EVQLVESGGGLVKPGRSLRLSCTASGFTFGDYAMSWFRQAPGKGLEWVGFIRSKAYGGTTEYAASVKGRFTISRDDSKSIAYLQMNSLKTEDTAVYYCTRDRYARYDILTGLSPAGADYFYYAMDVWGQGTTVTVSS
VL: EIVLTQSPATLSLSPGERATLSCRASQSVSSYLAWYQQKPGQAPRLLIYDASNRATGIPARFSGSGSGTDFTLTISSLEPEDFAVYYCQQRSNWPQYTFGQGTKLEIK
B1: no binding.

B2: monoclonal antibody 4L12 (antibody, V domains shown)
VH: EVQLVESGGGLVQPGGSLRLSCAASGITVSSNYMNWVRQAPGRGLEWVSLLYSGGSTYYADSVKGRFTISRDNSKNTLYLQMNSLRAEDTAVYYCARDLITYGMDVWGQGTTVTVSS
VL: AIQLTQSPSSLSASVGDRVTITCRASQGISSYLAWYQQKPGKAPKLLIYAASTLQSGVPSRFSGSGSGTDFTLTISSLQPEDFATYYCQQLNSYPPLTFGGGTKVEIK
B2: no binding.
